Measured values from patent US20020132350.

Molecular target: MuA transposase (Bacteriophage Mu) (UniProt P07636)
Experiment: cell_activity

Chain of MuA transposase (Bacteriophage Mu) (P07636 whole entry): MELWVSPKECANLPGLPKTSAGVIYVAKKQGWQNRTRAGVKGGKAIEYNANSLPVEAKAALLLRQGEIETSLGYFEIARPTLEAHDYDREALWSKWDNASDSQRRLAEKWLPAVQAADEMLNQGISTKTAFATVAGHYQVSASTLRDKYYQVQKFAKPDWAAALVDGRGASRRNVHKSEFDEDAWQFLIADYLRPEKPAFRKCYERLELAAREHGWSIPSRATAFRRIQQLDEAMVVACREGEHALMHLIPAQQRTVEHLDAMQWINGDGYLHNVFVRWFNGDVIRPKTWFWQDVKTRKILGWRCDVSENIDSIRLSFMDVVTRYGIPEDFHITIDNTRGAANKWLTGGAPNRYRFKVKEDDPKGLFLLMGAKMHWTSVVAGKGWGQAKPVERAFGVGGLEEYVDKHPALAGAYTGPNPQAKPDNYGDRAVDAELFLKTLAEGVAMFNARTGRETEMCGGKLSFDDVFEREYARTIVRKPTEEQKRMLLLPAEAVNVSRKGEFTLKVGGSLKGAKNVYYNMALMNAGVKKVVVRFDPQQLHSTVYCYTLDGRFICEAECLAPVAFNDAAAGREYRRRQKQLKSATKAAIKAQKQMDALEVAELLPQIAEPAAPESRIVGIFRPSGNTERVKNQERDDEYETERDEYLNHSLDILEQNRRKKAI

PC-4 fragment with lacZ-100 navigator via biotin/streptavidin
activity (biotin/streptavidin bridge, induced MuA, uninduced 0): 58 colonies

PC-4 SpeI/BglII fragment with attached lacZ-100 ssDNA navigator
activity (same conditions, 26 blue, 5 white): 31 colonies

PC-4 SpeI/BglII fragment (precleaved mini-Mu, inverted R1-R2-R3 ends flanking CAM)
activity (induced MuA (0.5 mM IPTG), replicate 204, uninduced 1 and 3): 240 colonies
activity (preformed CDC (25 mM HEPES pH 7.6, 130 mM NaCl, 10 mM MgCl2, 15% DMSO, 15% glycerol, 30 C 1 h) electroporated into E. coli, 16 blue, 4 white, fragment without …): 20 colonies
